The values that follow come from PMC4186968, “Molecular Basis for Coordinating Transcription Termination with Noncoding RNA Degradation” (Molecular Cell, 2014).

The test system of series [1] is Nrd1p-Nab3p. As to the kind of experiment: Electromobility shift assay of Nrd1p-Nab3p binding to RNA substrates. The settings on record: EMSA as for wt RNA; not accurately determined due to poor fit of the curve; estimated by graphical interpolation; read-out: Affinity of Nrd1p-Nab3p for RNA, estimated by graphical interpolation. Details: species or system S. cerevisiae. An excerpt:
Figure S6: Related to figure 6. A. Coomassie stained SDS-PAGE showing 10 pmol of each protein preparation used (50 pmol of the CID). Asterisks indicate proteolytic fragments of Air2p (deletions at the C-terminal unstructured region) and Nrd1-ΔCIDp (N-terminal truncation) that constitutes approximately 20% of the full-length protein. M: molecular weight marker. B. Analysis of Nrd1p-Nab3p binding to either the wt RNA, containing motifs required for high-affinity RNA-binding (open boxes), or a mutant variant harboring point mutations designed to disrupt all motifs (mutations underlined). The plots correspond to affinity curves generated by the Prism software from values derived from three independent electromobility shift assays (see supplemental experimental procedures). Bars denote standard deviations.
The affinity for the mutant RNA could not be accurately determined due to the poor fit of the curve but it was estimated to be approximately 45 nM by graphical interpolation. C. Polyadenylation assays using the wt and the mutant RNAs as substrates to test whether high-affinity RNA-binding by Nrd1p-Nab3p is required for stimulation of polyadenylation. Panels correspond to different gels.
(1 picture or pasted object on this page, not shown here) […]
for Nrd1 and Nab3) and stored at -80 °C. […]
average of three measurements. The experimental binding isotherms were analyzed by non- […]

In series [2] the target is T1, Nrd1 (rNrd1);Nab3 (rNab3) (Saccharomyces cerevisiae;Saccharomyces …, UniProt P53617;P38996 1-575;1-802, |).
T1 sequence 1: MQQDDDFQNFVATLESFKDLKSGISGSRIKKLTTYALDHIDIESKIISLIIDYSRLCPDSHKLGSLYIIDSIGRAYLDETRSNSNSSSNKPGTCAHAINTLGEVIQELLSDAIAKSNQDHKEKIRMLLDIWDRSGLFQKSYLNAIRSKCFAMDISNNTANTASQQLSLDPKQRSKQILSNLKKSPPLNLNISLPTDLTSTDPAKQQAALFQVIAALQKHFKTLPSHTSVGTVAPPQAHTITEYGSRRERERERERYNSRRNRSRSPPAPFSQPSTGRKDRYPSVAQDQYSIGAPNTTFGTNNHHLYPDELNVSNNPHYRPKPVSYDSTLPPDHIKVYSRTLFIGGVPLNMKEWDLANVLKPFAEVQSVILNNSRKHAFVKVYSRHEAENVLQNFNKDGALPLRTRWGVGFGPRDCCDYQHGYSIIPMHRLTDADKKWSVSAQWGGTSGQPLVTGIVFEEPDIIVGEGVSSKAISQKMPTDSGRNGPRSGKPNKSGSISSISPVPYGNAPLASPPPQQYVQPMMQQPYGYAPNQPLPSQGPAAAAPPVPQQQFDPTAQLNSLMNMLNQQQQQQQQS
T1 sequence 2: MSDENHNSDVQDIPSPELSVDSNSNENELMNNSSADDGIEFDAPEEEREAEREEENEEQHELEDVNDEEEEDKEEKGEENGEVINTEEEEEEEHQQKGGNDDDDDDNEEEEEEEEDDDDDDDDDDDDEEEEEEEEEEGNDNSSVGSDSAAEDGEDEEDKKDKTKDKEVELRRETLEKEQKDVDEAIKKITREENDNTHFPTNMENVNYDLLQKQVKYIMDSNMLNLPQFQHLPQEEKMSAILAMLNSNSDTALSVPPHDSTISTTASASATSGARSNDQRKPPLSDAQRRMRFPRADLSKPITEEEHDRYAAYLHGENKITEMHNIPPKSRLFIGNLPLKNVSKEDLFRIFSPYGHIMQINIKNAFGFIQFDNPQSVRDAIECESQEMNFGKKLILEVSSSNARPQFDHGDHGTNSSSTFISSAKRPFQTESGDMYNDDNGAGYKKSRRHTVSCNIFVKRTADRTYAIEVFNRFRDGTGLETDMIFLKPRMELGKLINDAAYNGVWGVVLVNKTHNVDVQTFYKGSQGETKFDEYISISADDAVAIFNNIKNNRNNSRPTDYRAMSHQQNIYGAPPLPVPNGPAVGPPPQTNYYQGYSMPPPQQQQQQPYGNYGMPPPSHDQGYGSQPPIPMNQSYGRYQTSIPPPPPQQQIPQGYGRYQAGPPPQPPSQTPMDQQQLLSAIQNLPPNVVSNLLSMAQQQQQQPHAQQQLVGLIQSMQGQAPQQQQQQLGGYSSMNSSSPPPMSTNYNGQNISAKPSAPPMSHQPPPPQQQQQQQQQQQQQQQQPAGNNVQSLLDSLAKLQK
As to the kind of experiment: EMSA; Kd value not in the material (legend line truncated); EMSA samples processed as described for the polyadenylation assays; buffer, salt, pH and temperature not in the material; n=3, single-site fit (Prism). To be noted: protein: recombinant;recombinant; tags: ;C-terminal TEV-His6 (from pDL469 primers); copies: 1;1; single strand.

For series [3], the system named is Trf4p NIM peptide. As to the kind of experiment: Equilibrium binding of Nrd1p CID mutants to the NIM peptide by fluorescence anisotropy (FA). Further details: species or system S. cerevisiae. To be noted: Nrd1p CID variant vs wild-type. On the technique in general: Polarisation of emitted light reports the rotation of a fluorescent probe.
Excerpt: Equilibrium binding experiments with both the protein and peptide mutants (in red and blue, respectively) were monitored by FA (for the binding isotherms, see Figure S5).
The importance of these contacts was further tested in a quantitative in vitro binding assay using FA.
Series [4] addresses T1, Nrd1 (rNrd1);Nab3 (rNab3). As to the kind of experiment: EMSA; EMSA samples processed as described for the polyadenylation assays; buffer, salt, pH and temperature not in the material; n=3, single-site fit (Prism). The settings on record: protein: recombinant;recombinant; tags: ;C-terminal TEV-His6 (from pDL469 primers); copies: 1;1; single strand. Background: In EMSA bound probe runs differently from free probe, usually more slowly.

On to “mutant RNA: mutant RNA with point mutations disrupting all motifs: GAAACGCAAUGAAUUAAGACUCGAUACAUUGCAAUUAGCU (RNA, backbone not given here)”, for which the Kd in series [1] was about 45 nM.
Consider GAAACGCAAUGAAUUAAGACUCGAUACAUUGCAAUUAGCU (ssRNA) [Mutant RNA (DL2975)], for which the “fold loss of affinity vs wt RNA” value in series [2] was ~20 fold lower affinity than wt RNA.

B1: I130K (protein)
chain: MQQDDDFQNFVATLESFKDLKSGISGSRIKKLTTYALDHIDIESKIISLIIDYSRLCPDSHKLGSLYIIDSIGRAYLDETRSNSNSSSNKPGTCAHAINTLGEVIQELLSDAIAKSNQDHKEKIRMLLDKWDRSGLFQKSYLNAIRSKCFAMD
For the molecule B1, the “Decrease in binding affinity for NIM relative to wild-type CID (fold)” value in series [3] is 20 fold.
Turning to GAAACGUAAUGAAUUAAGUCUUGAUAUAUAACAAUUAGCU (ssRNA) [Wt RNA (DL2974)], in series [4], the Kd was 2.4 ± 0.3 nM.
